T1: biotinylated V112E-PNT domain (ETV6 residues 43-135, V112E, with Avitag) (human, UniProt P41212 43-135, V112E, biotin on the Avitag (~50 to 95% biotinylated))
T1 construct: ETV6, human, residues 43-135 of V112E ETV6; also called biotinylated V112E-PNT domain ligand; V112E-PNT domain ligand; source: E. coli BL21 (λDE3) co-transformed with pET21a-BirA, purified (Ni-NTA, thrombin cleavage); not shown: His6, N-terminal, cleaved; Avitag, N-terminal, kept
T1 sequence (looked up): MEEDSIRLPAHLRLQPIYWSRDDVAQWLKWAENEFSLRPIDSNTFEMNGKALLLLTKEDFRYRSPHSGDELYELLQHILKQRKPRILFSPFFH


Target: T1, biotinylated V112E-PNT domain (ETV6 …)
Assay: SPR; biotinylated V112E-PNT domain ligand captured on streptavidin Sensor Chip SA, PNT domain analytes flowed; Biacore X100, 25 °C, HBS-EP+ (10 mM HEPES, 150 mM NaCl, 3 mM EDTA, 0.05% v/v Tween-20, pH 7.4); analyte 0.2-60 nM, re-run at 20-6000 nM if KD > 60 nM
Conditions: both partners purified
In short: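 ETV6 PNT domain (residues 43-135), biotinylated through an Avitag, was diluted to 50 μg/ml in HBS-EP+ and captured on a streptavidin Sensor Chip SA in a Biacore X100 run at 25 °C. PNT domain analytes were passed over the chip at 0.2, 2, 20, 40 and 60 nM, or at 20-6000 nM in repeat runs where binding was weaker. Between cycles the chip was regenerated with 0.2% SDS for 30 s. The Biacore kinetics/affinity software wizard gave the association and dissociation rate constants and the equilibrium dissociation constant.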

Row | Kd [nM] | koff [s⁻¹] | kon [M⁻¹ s⁻¹] | Binder
1 | 6.9 | 0.0014 | 210000 | S47A-A93D-PNT domain (domain or fragment, human, UniProt P41212 40-125, looked up, ETV6 PNT domain, human; source: E. coli BL21 (λDE3), purified (Ni-NTA, thrombin cleavage); not shown: His6, N-terminal, cleaved) ALRMEEDAIRLPAHLRLQPIYWSRDDVAQWLKWAENEFSLRPIDSNTFEMNGKDLLLLTKEDFRYRSPHSGDVLYELLQHILKQRK
2 | 12 | 0.004 | 340000 | I48A-A93D-PNT domain (domain or fragment, human, UniProt P41212 40-125, looked up, ETV6 PNT domain, human; source: E. coli BL21 (λDE3), purified (Ni-NTA, thrombin cleavage); not shown: His6, N-terminal, cleaved) ALRMEEDSARLPAHLRLQPIYWSRDDVAQWLKWAENEFSLRPIDSNTFEMNGKDLLLLTKEDFRYRSPHSGDVLYELLQHILKQRK
3 | 5.4 | 0.0014 | 260000 | H108A-A93D-PNT domain (domain or fragment, human, UniProt P41212 40-125, looked up, ETV6 PNT domain, human; source: E. coli BL21 (λDE3), purified (Ni-NTA, thrombin cleavage); not shown: His6, N-terminal, cleaved) ALRMEEDSIRLPAHLRLQPIYWSRDDVAQWLKWAENEFSLRPIDSNTFEMNGKDLLLLTKEDFRYRSPASGDVLYELLQHILKQRK
4 | 3.3 | 0.0093 | 2.8e+06 | S78A-A93D-PNT domain (domain or fragment, human, UniProt P41212 40-125, looked up, ETV6 PNT domain, human; source: E. coli BL21 (λDE3), purified (Ni-NTA, thrombin cleavage); not shown: His6, N-terminal, cleaved) ALRMEEDSIRLPAHLRLQPIYWSRDDVAQWLKWAENEFALRPIDSNTFEMNGKDLLLLTKEDFRYRSPHSGDVLYELLQHILKQRK
5 | 11 | 0.0025 | 230000 | E115A-A93D-PNT domain (domain or fragment, human, UniProt P41212 40-125, looked up, ETV6 PNT domain, human; source: E. coli BL21 (λDE3), purified (Ni-NTA, thrombin cleavage); not shown: His6, N-terminal, cleaved) ALRMEEDSIRLPAHLRLQPIYWSRDDVAQWLKWAENEFSLRPIDSNTFEMNGKDLLLLTKEDFRYRSPHSGDVLYALLQHILKQRK
6 | 420 | 0.0014 | 3300 | D111A-A93D-PNT domain (domain or fragment, human, UniProt P41212 40-125, looked up, ETV6 PNT domain, human; source: E. coli BL21 (λDE3), purified (Ni-NTA, thrombin cleavage); not shown: His6, N-terminal, cleaved) ALRMEEDSIRLPAHLRLQPIYWSRDDVAQWLKWAENEFSLRPIDSNTFEMNGKDLLLLTKEDFRYRSPHSGAVLYELLQHILKQRK
7 | 130 | 0.0045 | 35000 | Y114A-A93D-PNT domain (domain or fragment, human, UniProt P41212 40-125, looked up, ETV6 PNT domain, human; source: E. coli BL21 (λDE3), purified (Ni-NTA, thrombin cleavage); not shown: His6, N-terminal, cleaved) ALRMEEDSIRLPAHLRLQPIYWSRDDVAQWLKWAENEFSLRPIDSNTFEMNGKDLLLLTKEDFRYRSPHSGDVLAELLQHILKQRK
8 | 32 | 0.0029 | 91000 | R80A-A93D-PNT domain (domain or fragment, human, UniProt P41212 40-125, looked up, ETV6 PNT domain, human; source: E. coli BL21 (λDE3), purified (Ni-NTA, thrombin cleavage); not shown: His6, N-terminal, cleaved) ALRMEEDSIRLPAHLRLQPIYWSRDDVAQWLKWAENEFSLAPIDSNTFEMNGKDLLLLTKEDFRYRSPHSGDVLYELLQHILKQRK
9 | 3.3 | 0.00076 | 230000 | L116A-A93D-PNT domain (domain or fragment, human, UniProt P41212 40-125, looked up, ETV6 PNT domain, human; gene purchased commercially (Biomatik); source: E. coli BL21 (λDE3), purified (Ni-NTA, thrombin cleavage); not shown: His6, N-terminal, cleaved) ALRMEEDSIRLPAHLRLQPIYWSRDDVAQWLKWAENEFSLRPIDSNTFEMNGKDLLLLTKEDFRYRSPHSGDVLYEALQHILKQRK
10 | 21 | 0.0054 | 250000 | R103A-A93D-PNT domain (domain or fragment, human, UniProt P41212 40-125, looked up, ETV6 PNT domain, human; source: E. coli BL21 (λDE3), purified (Ni-NTA, thrombin cleavage); not shown: His6, N-terminal, cleaved) ALRMEEDSIRLPAHLRLQPIYWSRDDVAQWLKWAENEFSLRPIDSNTFEMNGKDLLLLTKEDFAYRSPHSGDVLYELLQHILKQRK
11 | 9.9 | 0.0062 | 620000 | E76A-A93D-PNT domain (domain or fragment, human, UniProt P41212 40-125, looked up, ETV6 PNT domain, human; source: E. coli BL21 (λDE3), purified (Ni-NTA, thrombin cleavage); not shown: His6, N-terminal, cleaved) ALRMEEDSIRLPAHLRLQPIYWSRDDVAQWLKWAENAFSLRPIDSNTFEMNGKDLLLLTKEDFRYRSPHSGDVLYELLQHILKQRK
12 | 930 | 0.0023 | 2400 | K99A-A93D-PNT domain (domain or fragment, human, UniProt P41212 40-125, looked up, ETV6 PNT domain, human; source: E. coli BL21 (λDE3), purified (Ni-NTA, thrombin cleavage); not shown: His6, N-terminal, cleaved) ALRMEEDSIRLPAHLRLQPIYWSRDDVAQWLKWAENEFSLRPIDSNTFEMNGKDLLLLTAEDFRYRSPHSGDVLYELLQHILKQRK
13 | 200 | 0.0016 | 8100 | L79A-A93D-PNT domain (domain or fragment, human, UniProt P41212 40-125, looked up, ETV6 PNT domain, human; source: E. coli BL21 (λDE3), purified (Ni-NTA, thrombin cleavage); not shown: His6, N-terminal, cleaved) ALRMEEDSIRLPAHLRLQPIYWSRDDVAQWLKWAENEFSARPIDSNTFEMNGKDLLLLTKEDFRYRSPHSGDVLYELLQHILKQRK
14 | 550 | 0.011 | 20000 | V112A-A93D-PNT domain (domain or fragment, human, UniProt P41212 40-125, looked up, ETV6 PNT domain, human; source: E. coli BL21 (λDE3), purified (Ni-NTA, thrombin cleavage); not shown: His6, N-terminal, cleaved) ALRMEEDSIRLPAHLRLQPIYWSRDDVAQWLKWAENEFSLRPIDSNTFEMNGKDLLLLTKEDFRYRSPHSGDALYELLQHILKQRK

— publication PMC7949025, “Biophysical characterization of the ETV6 PNT domain polymerization interfaces” (The Journal of Biological Chemistry, 2021)
